# B1: Mineralocorticoid receptor (Homo sapiens), P08235 (parent)
# chain: METKGYHSLPEGLDMERRWGQVSQAVERSSLGPTERTDENNYMEIVNVSCVSGAIPNNSTQGSSKEKQELLPCLQQDNNRPGILTSDIKTELESKELSATVAESMGLYMDSVRDADYSYEQQNQQGSMSPAKIYQNVEQLVKFYKGNGHRPSTLSCVNTPLRSFMSDSGSSVNGGVMRAVVKSPIMCHEKSPSVCSPLNMTSSVCSPAGINSVSSTTASFGSFPVHSPITQGTPLTCSPNVENRGSRSHSPAHASNVGSPLSSPLSSMKSSISSPPSHCSVKSPVSSPNNVTLRSSVSSPANINNSRCSVSSPSNTNNRSTLSSPAASTVGSICSPVNNAFSYTASGTSAGSSTLRDVVPSPDTQEKGAQEVPFPKTEEVESAISNGVTGQLNIVQYIKPEPDGAFSSSCLGGNSKINSDSSFSVPIKQESTKHSCSGTSFKGNPTVNPFPFMDGSYFSFMDDKDYYSLSGILGPPVPGFDGNCEGSGFPVGIKQEPDDGSYYPEASIPSSAIVGVNSGGQSFHYRIGAQGTISLSRSARDQSFQHLSSFPPVNTLVESWKSHGDLSSRRSDGYPVLEYIPENVSSSTLRSVSTGSSRPSKICLVCGDEASGCHYGVVTCGSCKVFFKRAVEGQHNYLCAGRNDCIIDKIRRKNCPACRLQKCLQAGMNLGARKSKKLGKLKGIHEEQPQQQQPPPPPPPPQSPEEGTTYIAPAKEPSVNTALVPQLSTISRALTPSPVMVLENIEPEIVYAGYDSSKPDTAENLLSTLNRLAGKQMIQVVKWAKVLPGFKNLPLEDQITLIQYSWMCLSSFALSWRSYKHTNSQFLYFAPDLVFNEEKMHQSAMYELCQGMHQISLQFVRLQLTFEEYTIMKVLLLLSTIPKDGLKSQAAFEEMRTNYIKELRKMVTKCPNNSGQSWQRFYQLTKLLDSMHDLVSDLLEFCFYTFRESHALKVEFPAMLVEIISDQLPKVESGNAKPLYFHRK
# partner: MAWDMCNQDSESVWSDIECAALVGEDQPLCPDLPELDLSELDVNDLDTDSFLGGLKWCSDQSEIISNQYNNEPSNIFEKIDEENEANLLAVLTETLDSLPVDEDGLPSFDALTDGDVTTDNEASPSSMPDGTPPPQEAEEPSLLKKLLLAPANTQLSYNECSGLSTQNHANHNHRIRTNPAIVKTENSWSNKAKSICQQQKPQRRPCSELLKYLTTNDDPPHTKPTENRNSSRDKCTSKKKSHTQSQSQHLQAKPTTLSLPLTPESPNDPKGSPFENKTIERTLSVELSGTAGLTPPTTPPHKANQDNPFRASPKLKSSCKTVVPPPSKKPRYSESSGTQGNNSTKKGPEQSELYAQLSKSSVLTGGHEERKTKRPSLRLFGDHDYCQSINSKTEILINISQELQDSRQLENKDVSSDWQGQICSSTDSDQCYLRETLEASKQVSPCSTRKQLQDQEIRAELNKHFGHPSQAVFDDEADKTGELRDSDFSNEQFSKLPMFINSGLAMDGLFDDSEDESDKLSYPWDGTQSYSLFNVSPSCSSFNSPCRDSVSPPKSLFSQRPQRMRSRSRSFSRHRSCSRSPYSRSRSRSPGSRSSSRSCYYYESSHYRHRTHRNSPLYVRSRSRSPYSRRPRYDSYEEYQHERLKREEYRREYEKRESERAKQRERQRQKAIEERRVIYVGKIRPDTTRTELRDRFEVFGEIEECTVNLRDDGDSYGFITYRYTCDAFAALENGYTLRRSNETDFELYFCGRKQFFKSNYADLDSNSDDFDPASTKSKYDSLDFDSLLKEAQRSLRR
# B2: Mineralocorticoid receptor (Homo sapiens), P08235 (parent)
# chain: B1 chain
# partner: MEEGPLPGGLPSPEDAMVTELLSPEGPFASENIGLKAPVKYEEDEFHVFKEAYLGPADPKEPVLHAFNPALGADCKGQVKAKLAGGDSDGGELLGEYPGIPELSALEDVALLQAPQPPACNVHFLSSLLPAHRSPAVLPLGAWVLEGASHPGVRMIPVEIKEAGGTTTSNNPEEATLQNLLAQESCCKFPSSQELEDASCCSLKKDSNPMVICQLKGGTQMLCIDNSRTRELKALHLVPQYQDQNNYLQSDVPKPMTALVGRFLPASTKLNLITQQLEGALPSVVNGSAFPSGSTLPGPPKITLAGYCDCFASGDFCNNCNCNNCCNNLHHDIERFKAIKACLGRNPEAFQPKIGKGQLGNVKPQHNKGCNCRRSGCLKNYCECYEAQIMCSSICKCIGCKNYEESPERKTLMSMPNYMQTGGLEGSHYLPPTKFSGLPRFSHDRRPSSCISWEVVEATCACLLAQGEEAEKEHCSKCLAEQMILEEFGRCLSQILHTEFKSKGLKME
# B3: Tesmin (Homo sapiens), Q9Y4I5 (parent)
# chain: B2 partner
# Variants of: B1
# Details: with prgc1_human PPARGC1A
row,Variant,effect of a mutation on the interaction
1,E962A,disrupting interaction strength

# Variants of: B1
# Details: with prgc1_human PPARGC1A
# Remark: another data set of the same source
row,Variant,effect of a mutation on the interaction
1,E962A,decreasing interaction strength

# Variants of: B2
# Details: with mtl5_human TESMIN
row,Variant,effect of a mutation on the interaction
1,E962A,decreasing interaction strength

# Variants of: B3
# Details: with mcr_human NR3C2, P08235
row,Variant,effect of a mutation on the interaction
1,L128A;L129A,with no effect
2,L180A;L181A,with no effect
3,L128A;L129A;L180A;L181A,disrupting interaction strength

# Reference: IntAct's records for PubMed 24907116
